Positions count from the first letter of the chain named.
T1: huCLL1-K244-Avi-Tev-His (human, UniProt Q5QGZ9 65-265)
T1 construct: extracellular domain
T1 sequence (looked up): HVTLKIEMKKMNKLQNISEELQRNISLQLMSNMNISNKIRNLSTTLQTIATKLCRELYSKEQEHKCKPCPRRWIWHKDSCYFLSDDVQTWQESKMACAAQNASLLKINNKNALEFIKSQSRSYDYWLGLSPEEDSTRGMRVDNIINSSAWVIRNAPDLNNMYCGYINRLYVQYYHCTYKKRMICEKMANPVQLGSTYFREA

T2: huCLL1-Q244-Avi-Tev-His (human, UniProt Q5QGZ9 65-265)
T2 construct: extracellular domain; also called CLL-1 K244Q
T2 sequence (looked up): T1 sequence (looked up) with K180Q

B1: Polypeptide No. 95 (scFv, V domains shown)
VH: QVQLVQSGAEVKKPGSSVKVSCKASGYSFTTYDINWVRQAPGQGLEWMGRMNPNSGNTGYAQKFQGRVTITADESTSTAYMELSSLRSEDTAVYYCARVVHGMDVWGQGTTVTVSS
VL: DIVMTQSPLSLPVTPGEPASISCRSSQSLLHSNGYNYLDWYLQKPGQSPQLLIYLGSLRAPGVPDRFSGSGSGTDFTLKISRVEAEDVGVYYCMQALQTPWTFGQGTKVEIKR
notes: scFv
B2: Polypeptide No. 92 (scFv, V domains shown)
VH: QVQLVQSGAEVKKPGASVKVSCKASGYTFTNHYMHWVRQAPGQGLEWMGIINPSGGSTSYAQKFQGRVTMTRDTSTSTVYMELSSLRSEDTAVYYCASAEVGATHYGMDVWGQGTTVTVSS
VL: DIVMTQSPLSLPVTPGEPASISCRSSQSLLHSNGYNYLDWYLQKPGQSPQLLIYAASSLQSGVPDRFSGSGSGTDFTLKISRVEAEDVGVYYCMQALHPPTFGQGTKVEIKR
notes: scFv
B3: Polypeptide No. 93 (scFv, V domains shown)
VH: QVQLVQSGAEVKKPGASVKVSCKASGYSFTNYDISWVRQAPGQGLEWMGWVNPNSGNTGYAQKFQGRVTMTRDTSTSTVYMELSSLRSEDTAVYYCAKDAPYYYDSSGYYGVFDYWGQGTLVTVSS
VL: DIVMTQSPLSLPVTPGEPASISCRSSQSLLHSNGYNYLDWYLQKPGQSPQLLIYAASSLQSGVPDRFSGSGSGTDFTLKISRVEAEDVGVYYCMQALQTPLTFGQGTRLEIKR
notes: scFv
B4: Polypeptide No. 94 (scFv, V domains shown)
VH: QVQLVQSGAEVKKPGASVKVSCKASGYTFTTYDINWVRQAPGQGLEWMGWISGYNGNTGYAQKFQGRVTMTRDTSTSTVYMELSSLRSEDTAVYYCAKDMGYGDYPDAFDIWGQGTMVTVSS
VL: B3 VL with S58T, T99I, L101I, R108K, L109V
notes: scFv
B5: Polypeptide No. 185 (scFv, V domains shown)
VH: EVQLLESGGGLVQPGGSLRLSCAASGFTFSNSDMYWVRQAPGKGLEWVSAISGSDGTTYYADSVKGRFTISRDNSKNTLYLQMNSLRAEDTAVYYCARDDYGDQGFDLWGRGTLVTVSS
VL: DIQMTQSPSSLSASVGDRVTITCRASQDIRNDLGWYQQKPGKAPKLLIYDASNLQTGVPSRFSGSGSGTDFTLTISSLQPEDFATYYCQQSYNMPYTFGQGTKLEIKR
notes: scFv
B6: Polypeptide No. 188 (scFv, V domains shown)
VH: EVQLLESGGGLVQPGGSLRLSCAASGFTFSSYGMHWVRQAPGKGLEWVSYTSSSSSTIYYADSVKGRFTISRDNSKNTLYLQMNSLRAEDTAVYYCARGNVGDNWNDDEAFLGWGQGTLVTVSS
VL: B5 VL with R24Q, R30S, D32Y, G34N, Q55E, S91T, N93D, M94T
notes: scFv
B7: Polypeptide No. 190 (scFv, V domains shown)
VH: EVQLLESGGGLVQPGGSLRLSCAASGFTFSSSWMHWVRQAPGKGLEWVSTINTNGDAAYYADSVKGRFTISRDNSKNTLYLQMNSLRAEDTAVYYCARDTVLDDYGDYDDYGMDVWGQGTTVTVSS
VL: EIVMTQSPATLSVSPGERATLSCRASQSVSSSYLAWYQQKPGQAPRLLIYGASTRAAGIPARFSGSGSGTEFTLTISSLQSEDFAVYYCQQYGSSPFTFGPGTKVDIKR
notes: scFv
B8: Polypeptide No. 186 (scFv, V domains shown)
VH: QVQLVQSGAEVKKPGASVKVSCKASGYTFTKYYMHWVRQAPGQGLEWMGWINPNSGNTGYAQKFQGRVTMTRDTSTSTVYMELSSLRSEDTAVYYCARDIAVAGSTYYYYGMDVWGQGTTVTVSS
VL: DIQMTQSPSSLSASVGDRVTITCQASQDISNYLNWYQQKPGKAPKLLIYDATNLETGVPSRFSGSGSGTDFTLTISSLQPEDFATYYCQQSYSTPPTFGGGTKVEIKR
notes: scFv
B9: Polypeptide No. 200 (scFv, V domains shown)
VH: QVQLVQSGAEVKKPGASVKVSCKASGYTFTDYYMHWVRQAPGQGLEWMGWMNPNSGNTGYAQKFQGRVTMTRDTSTSTVYMELSSLRSEDTAVYYCAADDTKSPYGMDVWGQGTMVTVSS
VL: B8 VL with D50E, T52S, N53S, E55Q, T56S, S91T, T94P, G100Q, V104L
notes: scFv
B10: Polypeptide No. 198 (scFv, V domains shown)
VH: EVQLLESGGGLVQPGGSLRLSCAASGFTFSTFWMSWVRQAPGKGLEWVATISYDGSNQYYADSVKGRFTISRDNSKNTLYLQMNSLRAEDTAVYYCARLELHEGRFDYWGQGTLVTVSS
VL: B8 VL with Q24R, D28S, N31S, T52S, S91A, Y92N, T94F, P96F, G100P, E105D
notes: scFv
B11: Polypeptide No. 183 (scFv, V domains shown)
VH: QVQLVQSGAEVKKPGSSVKVSCKASGGTFSSYAISWVRQAPGQGLEWMGGIIPKFGPPNYAPKFQGRVTITADESTSTAYMELSSLRSEDTAVYYCARNSYGDDFDYWGQGTLVTVSS
VL: DIQMTQSPSSLSASVGDRVTITCRASQSISSWLAWYQQKPGKAPKLLIYAASSLQRGVPSRFSGSGSGTDFTLTISSLQPEDFATYYCQQSYSTPLTFGQGTKVEIKR
notes: scFv
B12: Polypeptide No. 199 (scFv, V domains shown)
VH: QVQLVQSGAEVKKPGASVKVSCKASGDTFTGYHIHWVRQAPGQGLEWMGWMNPDSGSTGYAQKFQGRVTMTRDTSTSTVYMELSSLRSEDTAVYYCTTDRLYGDYFDYWGQGTLVTVSS
VL: B11 VL with I29V, A50D, R56S, S91A, Y92N, T94F, L96F, Q100P, E105D
notes: scFv
B13: Polypeptide No. 196 (scFv, V domains shown)
VH: QVQLVQSGAEVKKPGASVKVSCKASGYTLTNYYMHWVRQAPGQGLEWMGWISPTDGKTKYAQKFQGRVTMTRDTSTSTVYMELSSLRSEDTAVYYCTTDLLGDWFDPWGQGTLVTVSS
VL: B8 VL with Q24R, Q27R, D28S, S30R, N31S, T52S, S93N, P96W, G100Q
notes: scFv
B14: Polypeptide No. 197 (scFv, V domains shown)
VH: QVQLVQSGAEVKKPGASVKVSCKASGYTLTNNWMHWVRQAPGQGLEWMGWMNPNSGNTGYAQKFQGRVTMTRDTSTSTVYMELSSLRSEDTAVYYCATATADDAFDIWGQGTMVTVSS
VL: B11 VL with S31T, A50G, R56S, S93D, T94I, L96I, Q100P, E105D
notes: scFv
B15: Polypeptide No. 187 (scFv, V domains shown)
VH: EVQLLESGGGLVQPGGSLRLSCAASGFTFSSYDMHWVRQAPGKGLEWVSSISSSSSYIYYADSVKGRFTISRDNSKNTLYLQMNSLRAEDTAVYYCARDIDDVAGDYWGQGTLVTVSS
VL: B8 VL with D50G, T52S, N53S, E55Q, T56S, P96F, G100Q, V104L
notes: scFv
B16: Polypeptide No. 195 (scFv, V domains shown)
VH: QVQLVQSGAEVKKPGASVKVSCKASGYTFTNSYIHWVRQAPGQGLEWMGIINPSGDSTTYAQKFQGRVTMTRDTSTSTVYMELSSLRSEDTAVYYCAKPTTGDGMDVWGQGTTVTVSS
VL: B8 VL with Q24R, D28G, Y32W, N34A, T52S, P96L
notes: scFv
B17: Polypeptide No. 189 (scFv, V domains shown)
VH: EVQLLESGGGLVQPGGSLRLSCAASGLTAGSNYMSWVRQAPGKGLEWVSAISDDGHWTDYADSVKGRFTISRDNSKNTLYLQMNSLRAEDTAVYYCVKDDGEGSGIDWGQGTLVTVSS
VL: B11 VL with S28G, S31D, W32Y, A50G, R56S, L96W, Q100P, E105D
notes: scFv
B18: Polypeptide No. 184 (scFv, V domains shown)
VH: QVQLVQSGAEVKKPGASVKVSCKASGGTFGNYGINWVRQAPGQGLEWMGVINPSSGGTNLAQKFQGRVTMTRDTSTSTVYMELSSLRSEDTAVYYCARSLGWPSPYMDVWGQGTMVTVSS
VL: B8 VL with Q24R, D28S, N31R, T52S, P96W, G100Q, V104L
notes: scFv
B19: Polypeptide No. 194 (scFv, V domains shown)
VH: QVQLVQSGAEVKKPGASVKVSCKASGVTFSNSGINWVRQAPGQGLEWMGWMNPASGDTGYAQKFQGRVTMTRDTSTSTVYMELSSLRSEDTAVYYCARGEYGAEYFQHWGQGTLVTVSS
VL: B11 VL with A50D, Q55E, R56S, Y92H, T94L, L96P, K103R, V104L
notes: scFv

Molecular target: T3, huCD33-G69-Fc recombinant protein (human, UniProt P20138 18-259);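 also: biolayer interferometry: scFvs captured from periplasmic extracts on anti-V5-loaded streptavidin biosensors, antigen association for 2 min, buffer dissociation for 5 min, 1:1 Langmuir fit giving off-rate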
T3 construct: extracellular domain; also called CD33 R69G
T3 sequence (P20138 18-259 R69G): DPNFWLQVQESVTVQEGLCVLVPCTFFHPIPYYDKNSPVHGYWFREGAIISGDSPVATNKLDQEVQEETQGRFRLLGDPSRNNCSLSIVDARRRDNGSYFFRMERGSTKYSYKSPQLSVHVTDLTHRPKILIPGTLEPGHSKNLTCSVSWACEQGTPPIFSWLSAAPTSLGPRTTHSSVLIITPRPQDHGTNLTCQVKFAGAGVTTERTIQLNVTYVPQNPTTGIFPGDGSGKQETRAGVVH
Assay: BLI
Procedure: Discovered scFvs were analyzed for binding to huCD33-R69-His or huCD33-G69-Fc recombinant proteins (for anti-CD33 scFvs; for CLL-1 scFvs, huCLL1-K244-Avi-Tev-His or huCLL1-Q244-Avi-Tev-His were used; for FLT3, huFLT3-T227-His or huFLT3-M227-Fc were used) using BLI on a ForteBio Octet HTX instrument. Streptavidin-coated biosensors were loaded with biotinylated anti-V5 tag monoclonal antibody for 5 min and were then quenched and blocked with 20 μM amine-PEG2-Biotin for 5 min. scFvs were captured on biosensors from scFv clone periplasmic extracts. huCD33 (or huCLL-1, or huFLT3) proteins were then associated with the captured scFvs for 2 minutes, followed by dissociation with buffer (1×HBST [10 mM HEPES pH 7.4, 150 mM NaCl, 0.05% Tween-20], 1 g/L BSA) for 5 minutes. […] Data was fitted with 1:1 Langmuir equation and off-rate values were reported.

binding result	Binder
binds	B1
binds	B2
binds	B3
binds	B4

Molecular target: T1, huCLL1-K244-Avi-Tev-His
Assay: BLI

binding result	Binder
binds	B5
binds	B6
binds	B7
binds	B8
binds	B9
binds	B10
binds	B11
binds	B12
no binding	B13
binds	B14
binds	B15
binds	B16
binds	B17
binds	B18
binds	B19

Molecular target: T2, huCLL1-Q244-Avi-Tev-His
Assay: BLI

binding result	Binder
binds	B5
binds	B6
binds	B7
binds	B8
no binding	B9
no binding	B10
binds	B11
no binding	B12
binds	B13
binds	B14
binds	B15
binds	B16
binds	B17
binds	B18
binds	B19

Molecular target: T4, huCD33-R69 stably expressed on Jurkat cells (human, UniProt P20138 18-364)
T4 construct: whole, on cells; >200,000 receptors per cell; also called CD33 WT; CD33^ARG69
T4 sequence (P20138 18-364): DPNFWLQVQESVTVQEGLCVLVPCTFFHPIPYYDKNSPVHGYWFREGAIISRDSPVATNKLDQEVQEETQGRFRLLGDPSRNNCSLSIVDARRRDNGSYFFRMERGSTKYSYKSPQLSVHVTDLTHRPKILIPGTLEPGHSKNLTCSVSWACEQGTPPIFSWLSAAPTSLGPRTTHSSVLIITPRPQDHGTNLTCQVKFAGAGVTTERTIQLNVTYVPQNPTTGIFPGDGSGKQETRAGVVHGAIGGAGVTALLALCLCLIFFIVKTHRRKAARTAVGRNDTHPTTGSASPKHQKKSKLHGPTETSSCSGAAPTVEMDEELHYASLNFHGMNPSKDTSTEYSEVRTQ
Assay: FACS on cells;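 also: fixed Jurkat lines probed with myc-tagged scFv periplasmic extracts, anti-myc PE flow cytometry, PE MFI fold binned − <2, + 2–10, ++ 10–30, +++ >30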
Procedure: (§1) Jurkat cells were engineered to stably express either the huCD33-R69 or huCD33-G69 variant at >200,000 receptors per cell. Parental, huCD33-R69, and huCD33-G69 Jurkat cell lines were stained with differing levels of CellTrace Violet Cell Proliferation Kit (ThermoFisher, cat. #C34557) to barcode each cell line. Barcoded Jurkat cell lines were fixed with paraformaldehyde and incubated with myc-labeled scFv periplasmic extracts and a secondary anti-myc PE-conjugated monoclonal antibody. Appropriate positive and negative controls were used. Stained cells were analyzed by flow cytometry (CytoFLEX, Beckman Coulter, Inc.) and binding was assessed by change in PE mean fluorescence intensity (MFI) of the barcoded cell populations.
(§2) Data is disclosed below in Table 16c, reporting FACS fold change over parental as (−), indicating <2 fold; (+), indicating 2-10 fold; (++), indicating 10-30 fold; and (+++), indicating >30 fold.

FACS geometric mean fold change over Jurkat parental [fold]	Binder
2 to 10	B1
2 to 10	B2
2 to 10	B3
2 to 10	B4

Molecular target: T5, huCD33-G69 stably expressed on Jurkat cells (human, UniProt P20138 18-364)
T5 construct: whole, on cells; >200,000 receptors per cell; also called CD33 Mutant; CD33 R69G
T5 sequence (P20138 18-364 R69G): as the sequence (P20138 18-364) above, with R52G counted along it
Assay: FACS on cells;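 also: fixed Jurkat lines probed with myc-tagged scFv periplasmic extracts, anti-myc PE flow cytometry, PE MFI fold binned − <2, + 2–10, ++ 10–30, +++ >30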
Procedure: as §1, §2

FACS geometric mean fold change over Jurkat parental [fold]	Binder
2 to 10	B1
2 to 10	B2
2 to 10	B3
10 to 30	B4
